Results on nine compounds are retold here after paper PMC7429351, “Comparison of ligand binding and conformational stability of human calmodulin with its homolog from the malaria parasite Plasmodium falciparum” (FASEB BioAdvances, 2020).

Data set [1] addresses T1, Pf CaM (Plasmodium falciparum, UniProt P62203).
T1 construct: properties of the whole protein can be explored with differential scanning calorimetry; made in house; host or cells: E coli
In words: Calcineurin activity assay, inhibition of Pf CaM function. The format is biochemical. The settings on record: for inhibition of Pf CaM function in CaN activity assay: screen of selected Malaria Box compounds. As for the experimental part: (§1) Calcineurin (PPase‐2B, CaN) was purchased from Promega (V6361, isolated from bovine brain). Dephosphorylation of the substrate p‐nitrophenyl phosphate (PNPP, Sigma, 1040) was followed by monitoring the increase in absorbance at 405 nm using a Perkin Elmer EnSpire microplate reader. The CaN activity was assayed by measuring the initial velocities at 28°C in 50 mmol/L Tris, pH 7.5 containing 0.001 unit/μL CaN, 0.1 mg/mL BSA, 20 mmol/L PNPP, 1 mmol/L NiCl2, and various amounts of CaM to determine dose‐response curves for CaN activation by CaM.

The nature of data set [2]: Differential scanning calorimetry thermal denaturation. The format is physicochemical. Conditions: DSC; for T m1 / ΔH1 / ΔHv1: first transition; for T m1 / T m2: 1°C/min; for ΔH1 / ΔH2: calorimetric enthalpy; for ΔHv1 / ΔHv2: van't Hoff enthalpy; for T m2 / ΔH2 / ΔHv2: second transition. As for the experimental part: Thermograms were measured in the standard assay buffer complemented with 1 mmol/L EGTA or CaCl2 using a VP‐DSC microcalorimeter (MicroCal). Protein samples at 0.75 mg/mL were heated at a scan rate of 1°C/min with no feedback. Data analysis was performed with the Origin software provided by MicroCal.

Data set [3] deals with 3D7 chloroquine sensitive but sulfadoxine resistant strain of P falciparum. Details: method as in earlier work. Conditions: blood stage, 3D7 strain; ref MMV website (https://www.mmv.org/mmv-open/malaria-box/malaria-box-supporting-information); cited from earlier work.
Data set [4] has as its target T2, human CaM (Homo sapiens, UniProt P0DP23).
T2 construct: properties of the whole protein can be explored with differential scanning calorimetry; made in house; host or cells: E coli
In words: Isothermal titration calorimetry, ligand titrated with human CaCaM. The format is binding. Conditions: ITC, 25°C, 1 mmol/L CaCl2, one set of sites model. An excerpt: (§2) Titration curves were fitted with the models provided by the built‐in Origin software (MicroCal.).
Background: ITC needs no label: the signal is the heat of the interaction.

Data set [5] deals with T1, Pf CaM. In words: biochemical. The format is binding. Conditions: ITC.
Excerpt: as §2

In data set [6] the target is T3, dansyl-labeled Pf CaM (Plasmodium falciparum, UniProt P62203).
T3 construct: properties of the whole protein can be explored with differential scanning calorimetry; made in house; host or cells: E coli
Description: Dansyl-CaM fluorescence titration, Pf CaM. The format is binding. Conditions: hyperbolic fit. The method, then: (§3) Spectra were collected using a Jobin Yvon Fluoromax‐3 spectrofluorometer at 25°C in the standard assay buffer containing either 1 mmol/L EGTA or 1 mmol/L CaCl2. Spectra were recorded three times, averaged, and corrected by subtracting the appropriate blank. Tyrosine fluorescence was excited at 274 nm, the emission was detected between 285 and 370 nm, and the intensities were recorded at 303 nm. In ANS binding assays, 10 μmol/L of ANS (8‐anilinonaphtalene‐1‐sulfonic acid, Fluka, 10417) was excited at 388 nm in the presence of 2 μmol/L CaM in standard assay buffer, and the emission was monitored from 410 to 600 nm. In experiments with dansyl‐labeled CaM, the fluorophore was excited at 340 nm, and the emission was monitored from 400 to 600 nm.

In data set [7] the target is T2, human CaM. Description: Calcineurin activity assay, inhibition of human CaM function. The data set is classed as biochemical. As for the experimental part:
as §1

The target in data set [8] is T4, human CaM (dansyl-labeled) (Homo sapiens, UniProt P0DP23).
T4 construct: properties of the whole protein can be explored with differential scanning calorimetry; made in house; host or cells: E coli
In words: Dansyl-CaM fluorescence titration, human CaM. The data set is classed as binding. Conditions: hyperbolic fit. The method, then: as §3

The target in data set [9] is T2, human CaM. Description: ANS binding fluorescence, human CaM. Conditions: 10 μmol/L ANS.
Data set [10] deals with T1, Pf CaM. Description: ANS binding fluorescence, Pf CaM. Conditions: 10 μmol/L ANS. As for the experimental part:
as §3

The nature of data set [11]: CD melting curves at 222 nm. The format is physicochemical. The settings on record: CD 222 nm. The method, then: CD spectra were recorded on Jasco J‐720 and J‐810 spectropolarimeters (Jasco) using quartz cuvettes with pathlengths of 1 mm in the far‐UV and 1 cm in the near‐UV range. Samples were measured in the standard assay buffer complemented with 1 mmol/L EGTA or CaCl2 at a protein concentration of 5‐8 μmol/L in the far‐UV and 210 μmol/L in the near‐UV. Spectra were recorded at least three times at a scan speed of 20 nm/min using a bandwidth and response time of 1 nm and 4 seconds, respectively. Secondary structure content was estimated using the BeStSel method available at http://bestsel.elte.hu. ^24 Melting curves were measured in standard assay buffer or 25 mmol/L phosphate, pH 7.0, in the presence of 1 mmol/L EGTA or saturating levels of CaCl2 monitoring the ellipticity at 222 nm for secondary structure changes or at 280 nm to monitor the signal of Tyr residues. A heating rate of 1 or 2°C/min was used. In a well‐sealed 1 mm‐cell, heating up to 110°C was possible.

Data set [12] is described as follows: Differential scanning fluorimetry (nanoDSF, intrinsic fluorescence). The data set is classed as physicochemical. Conditions: DSF, 5°C/min, C-domain Tyr fluorescence. The method, then:
Denaturation curves were determined by detecting intrinsic protein fluorescence as a function of temperature using the Prometheus instrument (NanoTemper Technologies). Protein samples at 1.0‐1.5 mg/mL were heated at a scan rate of 5°C/min up to 110°C in the standard assay buffer using the designated set and capillaries. Data analysis was performed with the built‐in analysis software.
On the technique in general: In DSF a fluorescence change marks the thermal transition of the protein.

Data set [13] addresses T5, bovine brain CaN (Bos taurus, UniProt P48452).
T5 construct: purchased Promega V6361; host or cells: bovine brain
In words: Calcineurin activation by CaM. The data set is classed as biochemical. The settings on record: PNPP substrate, 28°C. The method, then:
as §1

Data set [14] has as its system bovine PDE. Description: PDE activation by CaM. The settings on record: 150 nmol/L CaM, 1 mmol/L CaCl2. The data set is classed as biochemical.
Data set [15] addresses T6, human MLCK (Homo sapiens, UniProt Q15746).
T6 construct: GST; purchased Sigma M9197
In words: MLCK activation by CaM (ADP-Glow). The data set is classed as biochemical. Conditions: 30 minutes, room temperature. As for the experimental part:
Myosin light chain kinase (MLCK) was purchased from Sigma (M9197, human, recombinant, GST‐tagged). Enzyme activity was measured in standard buffer complemented with 0.5 mmol/L CaCl2, 2.5 mmol/L MgCl2, and 0.1 mg/mL BSA. When measuring activation by CaM, 20 μL reaction mixtures contained 3.5 ng/μL MLCK, 0.1 mg/mL MLCK substrate (Sigma SCP0196), 50 μmol/L ATP, 0.5 mmol/L DTT, and various amounts of CaM. Samples were incubated for 30 minutes at room temperature then ADP formed during the kinase reaction was detected using the ADP‐Glow Kinase Assay kit (Promega) according to the manufacturer's instructions. Luminescence values proportional to ADP concentration were normalized to maximal intensities obtained at saturating CaM concentrations.

Where “and” joins values, the source holds several entries; their conditions need not be identical. Identical values can stand only once. Like-named read-outs stand apart in the source and are kept apart here. Where only a bound is given, the exact number is not on record here.

T5 sequence (P63099 2-170 partner limits assumed, other chains not shown): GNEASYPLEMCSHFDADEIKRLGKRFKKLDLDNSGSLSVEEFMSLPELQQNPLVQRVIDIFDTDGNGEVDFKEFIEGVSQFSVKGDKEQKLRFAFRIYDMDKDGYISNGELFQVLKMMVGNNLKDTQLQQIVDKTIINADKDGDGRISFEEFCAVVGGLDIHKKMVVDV
T6 sequence (Q15746 1425-1771 limits assumed): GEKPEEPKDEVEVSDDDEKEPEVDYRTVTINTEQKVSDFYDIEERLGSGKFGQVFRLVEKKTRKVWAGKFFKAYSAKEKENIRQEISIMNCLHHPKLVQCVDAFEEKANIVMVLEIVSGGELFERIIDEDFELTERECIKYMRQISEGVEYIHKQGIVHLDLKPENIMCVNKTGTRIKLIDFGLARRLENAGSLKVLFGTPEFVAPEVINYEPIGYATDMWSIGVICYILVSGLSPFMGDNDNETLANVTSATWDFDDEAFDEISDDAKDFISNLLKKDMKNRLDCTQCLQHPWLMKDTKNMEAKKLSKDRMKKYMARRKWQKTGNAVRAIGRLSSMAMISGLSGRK

In the case of `Cl.N=c1n(CCN2CCCCC2)c2ccccc2n1CC(O)c1cccc(Br)c1` (stereo not shown) [MMV665902], the “inhibition of Pf CaM function in CaN activity assay” value (from here on “inhibition of Pf CaM function”) in [1] is listed as “showed inhibitory effect”.
Same read-out and setting: as for `O=C(Nc1ccc(F)c(Cl)c1)Nc1ccc(Cl)c(Cl)c1` [MMV665953], the entry is “showed inhibitory effect”.
Consider “Pf CaCaM: Plasmodium falciparum calmodulin, Ca2+‐saturated form”, for which, in [2], the “T m1” value was 92.6 ± 0.1 °C, the ΔH1 was determined as 47.8 ± 0.3 kcal/mol, the ΔHv1 stood at 44.5 ± 0.3 kcal/mol and the “T m2” value was determined as 125.9 ± 0.2 °C. In data set [2], this compound registered a ΔH2 of 97.9 ± 2.2 kcal/mol and a ΔHv2 of 65.7 ± 0.8 kcal/mol.
Take `O=C(NCC(c1ccsc1)N1CCCCCC1)c1ccc(C(F)(F)F)cc1` (stereo not shown) [MMV396672]: the “inhibition of Pf CaM function” value in data set [1] is listed as “showed inhibitory effect”.
Consider `OC(CNCC1CCCO1)Cn1c2ccc(Cl)cc2c2cc(Cl)ccc21` (stereo not shown) [MMV396736], for which the EC50 in [3] was 1060 nM. The Kd in data set [4] turned out to be 2500 ± 500 nM; in [5] (25°C, 1 mmol/L CaCl2, one set of sites model, read-out: K d), 2500 ± 200 nM; in [6], 2400 ± 400 nM; in [8], 1800 ± 400 nM. The stoichiometry n in data set [5] (one set of sites model) is ~ 8 and 7.4 ± 0.1. For the same compound, the IC50 in [1] was found to be 6200 ± 1500 nM; in [7], 1600 ± 760 nM. For the same compound, the “inhibition of Pf CaM function” value in data set [1] is reported as “showed inhibitory effect”.
For `O=S(=O)(O)c1cccc2cccc(Nc3ccccc3)c12` [ANS, 8‐anilinonaphthalene‐1‐sulfonic acid], the “ANS binding (fluorescence)” value in [9] (2 μmol/L CaCaM) is recorded as “remarkable ANS binding”; in [9] (2 μmol/L apoprotein) it was “no ANS binding”; in data set [10] (2 μmol/L CaCaM, compared with human CaCaM), “approximately twofold higher fluorescence intensity”; in data set [10] (2 μmol/L apoprotein) it was “no ANS binding”.
Take “Pf apoCaM: Plasmodium falciparum calmodulin, Ca2+-free apo form”: in [2], the “T m1” value is 54.7 ± 0.2 °C, the ΔH1 turned out to be 41.2 ± 1.2 kcal/mol, the ΔHv1 came to 48.1 ± 0.4 kcal/mol and the “T m2” value came out at 64.3 ± 0.1 °C. For the same compound, in data set [2], the ΔH2 is 33.4 ± 1.2 kcal/mol and the ΔHv2 is given as 53.5 ± 0.6 kcal/mol. In data set [11] (in phosphate buffer of low ionic strength), the T m was 51.2 ± 0.1 °C. The compound further showed a T m in data set [11] (standard assay buffer) of 54.4 ± 0.2 °C. This compound gave a T m in data set [12] of 51.2 ± 0.6 °C.
As for `CC[C@H](C)[C@H](NC(=O)CN)C(=O)NCC(=O)N[C@@H](C)C(=O)N[C@H](C(=O)N[C@@H](CC(C)C)C(=O)N[C@@H](CCCCN)C(=O)N[C@H](C(=O)N[C@@H](CC(C)C)C(=O)N[C@H](C(=O)N[C@H](C(=O)NCC(=O)N[C@@H](CC(C)C)C(=O)N1CCC[C@H]1C(=O)N[C@@H](C)C(=O)N[C@@H](CC(C)C)C(=O)N[C@H](C(=O)N[C@@H](CO)C(=O)N[C@@H](Cc1c[nH]c2ccccc12)C(=O)N[C@H](C(=O)N[C@@H](CCCCN)C(=O)N[C@@H](CCCNC(=N)N)C(=O)N[C@@H](CCCCN)C(=O)N[C@@H](CCCNC(=N)N)C(=O)N[C@@H](CCC(N)=O)C(=O)N[C@@H](CCC(N)=O)C(N)=O)[C@@H](C)CC)[C@@H](C)CC)[C@@H](C)O)[C@@H](C)O)C(C)C)C(C)C` [melittin], the Kd in data set [5] (K d, one set of sites model, upper limit) is < 30 nM.
For “Pf CaM: Recombinant Plasmodium falciparum calmodulin (Uniprot P62203) expressed in E coli”, in data set [13], the EC50 came to 1 nM and the “activation by CaM (elevation of the basal activity)” value is 2.1 fold. For the same compound, in data set [14], the “increase of PDE activity” value is “the same activation effect”. For the same compound, the EC50 in data set [15] is ~15 nM. Moreover, in data set [12], the T m is ~ 51 °C.

By EC50 is commonly meant the midpoint of the concentration-response curve. As usually defined, the IC50 is the concentration that inhibits the measured activity by half.
